Data on 9 variants can be found in FireProtDB (doi:10.1016/j.jmb.2011.02.053).

The chains are these.
B1: Guanyl-specific ribonuclease Sa, P05798 (parent)
chain: DVSGTVCLSALPPEATDTLNLIASDGPFPYSQDGVVFQNRESVLPTQSYGYYHEYTVITPGARTRGTRRIITGEATQEDYYTGDHYATFSLIDQTC

The variants in the data set derive from B1. The conditions noted are these: Kitasatospora aureofaciens; pH 7; Thermal; Fluorescence; MOPS 30mM; transition: 2; reversible: yes; structure 1RGG; whole UniProt chain shown.

Turning to DVSGTVCLSALPPEATDTANLIASDGPFPYSQDGVVFQNRESVLPTQSYGYYHEYTVITPGARTRGTRRIITGEATQEDYYTGDHYATFSLIDQTC [L19A], the “change of melting temperature, mutant - wild type (higher = more stable)” value (from here on “change of melting temperature, mutant”) is -13.8 °C; the “ddG of mutation (higher = less stable)” value is 3.65 kcal/mol; the “unfolding enthalpy (calorimetric)” value turned out to be 73 kcal/mol.

As for DVSGTVCLSALPPEATDTLNLIASDGPFPYSQDGVVFQNRESVLPTQSYGYYHEYTVITPGARTRGTRRIVTGEATQEDYYTGDHYATFSLIDQTC [I71V], the “change of melting temperature, mutant” value is -0.3 °C; the “ddG of mutation (higher = less stable)” value was 0.13 kcal/mol; the “unfolding enthalpy (calorimetric)” value came to 80 kcal/mol.

For the variant DVSGTVCLSALPPEATDTLNLIASDGPFPYSQDGVVFQNRESVLPTQSYGYYHEYTVITPGARTRGTRRVITGEATQEDYYTGDHYATFSLIDQTC [I70V], the “change of melting temperature, mutant” value was -3.4 °C; the “ddG of mutation (higher = less stable)” value stood at 0.94 kcal/mol; the “unfolding enthalpy (calorimetric)” value is 87 kcal/mol.

For the variant DVSGTVCLSALPPEATDTLNLVASDGPFPYSQDGVVFQNRESVLPTQSYGYYHEYTVITPGARTRGTRRIITGEATQEDYYTGDHYATFSLIDQTC [I22V], the “change of melting temperature, mutant” value is -5.7 °C; the “ddG of mutation (higher = less stable)” value worked out at 1.48 kcal/mol; the “unfolding enthalpy (calorimetric)” value was 74 kcal/mol.

Take DVSGTVCLSALPPEATDTLNLIASDGPFPYSQDGVVFQNRESVLPTQSYGYYHEYTVITPGARTRGTRRIITGEATQEDYYTGDHYATFSAIDQTC [L91A]: the “change of melting temperature, mutant” value was -3.2 °C; the “ddG of mutation (higher = less stable)” value came out at 0.84 kcal/mol; the “unfolding enthalpy (calorimetric)” value amounted to 91 kcal/mol.

With DVSGTVCLSALPPEATDTLNAIASDGPFPYSQDGVVFQNRESVLPTQSYGYYHEYTVITPGARTRGTRRIITGEATQEDYYTGDHYATFSLIDQTC [L21A], the “change of melting temperature, mutant” value is -1.6 °C; the “ddG of mutation (higher = less stable)” value is 0.41 kcal/mol; the “unfolding enthalpy (calorimetric)” value amounted to 85 kcal/mol.

Turning to DVSGTVCASALPPEATDTLNLIASDGPFPYSQDGVVFQNRESVLPTQSYGYYHEYTVITPGARTRGTRRIITGEATQEDYYTGDHYATFSLIDQTC [L8A], the “change of melting temperature, mutant” value is -5 °C; the “ddG of mutation (higher = less stable)” value was determined as 1.34 kcal/mol; the “unfolding enthalpy (calorimetric)” value is 89 kcal/mol.

Turning to DVSGTVCLSALPPEATDTLNLIASDGPFPYSQDGVVFQNRESVLPTQSYGYYHEYTVVTPGARTRGTRRIITGEATQEDYYTGDHYATFSLIDQTC [I58V], the “change of melting temperature, mutant” value is 0.11 °C; the “ddG of mutation (higher = less stable)” value stood at 0 kcal/mol; the “unfolding enthalpy (calorimetric)” value turned out to be 89 kcal/mol.

In the case of DVSGTVCLSALPPEATDTLNLIASDGPFPYSQDGVVFQNRESVLPTQSYGYYHEYTVITPGARTRGTRRIITGEATQEDYYTGDHYATFSLVDQTC [I92V], the “change of melting temperature, mutant” value was -3.9 °C; the “ddG of mutation (higher = less stable)” value was 1 kcal/mol; the “unfolding enthalpy (calorimetric)” value is 84 kcal/mol.
